B1: ABCC6, O95255 (peptide)
chain: YRLAQESGLV
B2: SLC2A7, Q6PXP3 (peptide)
chain: TASPAKETSF

What follows are binders tested against T1, APBA2_1, Q99767 (assay: holdup assay). Conditions: plain residues with an end cap or a label only (N-terminal biotin on a linker: ado-ado).
T1 sequence (Q99767 563-664, limits assumed, looked up): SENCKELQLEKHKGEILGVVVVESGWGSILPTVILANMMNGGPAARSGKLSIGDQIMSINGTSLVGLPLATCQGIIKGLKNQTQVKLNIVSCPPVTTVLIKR
Parameters: key: below the threshold = too weak to quantify, mostly under pKd 3.1 to 4

| pKd | Binder |
| --- | --- |
| below the threshold | B1 |
| below the threshold | B2 |

What follows are binders tested against T2, APBA3_1, O96018 (assay: holdup assay). Conditions: plain residues with an end cap or a label only (N-terminal biotin on a linker: ado-ado).
T2 sequence (O96018 389-490, limits assumed, looked up): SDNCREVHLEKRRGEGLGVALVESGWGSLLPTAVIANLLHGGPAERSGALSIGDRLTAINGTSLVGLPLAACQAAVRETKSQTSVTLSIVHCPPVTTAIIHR
Parameters: key: below the threshold = too weak to quantify, mostly under pKd 3.1 to 4

| pKd | Binder |
| --- | --- |
| below the threshold | B1 |
| below the threshold | B2 |

These binders were tested against ARHGEF12, Q9NZN5-2 (assay: holdup assay). Conditions: plain residues with an end cap or a label only (N-terminal biotin on a linker: ado-ado).
Parameters: key: below the threshold = too weak to quantify, mostly under pKd 3.1 to 4

Chain of ARHGEF12, Q9NZN5-2 (Q9NZN5 other isoform, or with tags, fused parts or gaps): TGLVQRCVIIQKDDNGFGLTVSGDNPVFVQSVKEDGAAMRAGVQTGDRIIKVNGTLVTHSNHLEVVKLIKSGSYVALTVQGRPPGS

| pKd | Binder |
| --- | --- |
| below the threshold | B1 |
| 3.59 | B2 |

These binders were tested against CASK, O14936 (assay: holdup assay). Conditions: plain residues with an end cap or a label only (N-terminal biotin on a linker: ado-ado).
Parameters: key: below the threshold = too weak to quantify, mostly under pKd 3.1 to 4

Chain of CASK, O14936 (O14936 487-570): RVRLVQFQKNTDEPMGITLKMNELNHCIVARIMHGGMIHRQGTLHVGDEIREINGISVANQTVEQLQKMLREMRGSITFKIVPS

| pKd | Binder |
| --- | --- |
| below the threshold | B1 |
| below the threshold | B2 |

What follows are binders tested against T3, DFNB31_2, Q9P202 (assay: holdup assay). Conditions: plain residues with an end cap or a label only (N-terminal biotin on a linker: ado-ado).
T3 sequence (Q9P202 274-371, limits assumed, looked up): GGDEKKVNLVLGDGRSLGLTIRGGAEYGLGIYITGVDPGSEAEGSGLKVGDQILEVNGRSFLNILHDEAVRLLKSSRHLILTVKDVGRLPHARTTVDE
Parameters: key: below the threshold = too weak to quantify, mostly under pKd 3.1 to 4

| pKd | Binder |
| --- | --- |
| below the threshold | B1 |
| below the threshold | B2 |

The binders below were run against DLG2_2, Q15700 (assay: holdup assay). Conditions: plain residues with an end cap or a label only (N-terminal biotin on a linker: ado-ado).
Parameters: key: below the threshold = too weak to quantify, mostly under pKd 3.1 to 4

Chain of DLG2_2, Q15700 (Q15700 189-283): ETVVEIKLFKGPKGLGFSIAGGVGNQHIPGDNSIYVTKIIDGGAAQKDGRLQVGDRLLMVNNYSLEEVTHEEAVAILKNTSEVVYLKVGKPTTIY

| pKd | Binder |
| --- | --- |
| below the threshold | B1 |
| 4.06 | B2 |

These binders were tested against T4, DVL3, Q92997 (assay: holdup assay). Conditions: plain residues with an end cap or a label only (N-terminal biotin on a linker: ado-ado).
T4 sequence (Q92997 244-331, limits assumed, looked up): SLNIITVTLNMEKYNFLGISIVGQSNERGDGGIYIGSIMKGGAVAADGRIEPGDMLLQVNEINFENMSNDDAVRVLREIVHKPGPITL
Parameters: key: below the threshold = too weak to quantify, mostly under pKd 3.1 to 4

| pKd | Binder |
| --- | --- |
| below the threshold | B1 |
| below the threshold | B2 |

These binders were tested against GORASP1, Q9BQQ3 (assay: holdup assay). Conditions: plain residues with an end cap or a label only (N-terminal biotin on a linker: ado-ado).
Parameters: key: below the threshold = too weak to quantify, mostly under pKd 3.1 to 4

Chain of GORASP1, Q9BQQ3 (Q9BQQ3 1-208): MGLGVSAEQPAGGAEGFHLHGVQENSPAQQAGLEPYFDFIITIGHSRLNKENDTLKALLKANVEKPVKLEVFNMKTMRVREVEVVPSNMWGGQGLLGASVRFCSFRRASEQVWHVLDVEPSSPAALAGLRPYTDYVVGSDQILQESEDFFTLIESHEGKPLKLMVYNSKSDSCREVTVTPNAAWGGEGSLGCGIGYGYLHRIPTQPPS

| pKd | Binder |
| --- | --- |
| below the threshold | B1 |
| below the threshold | B2 |

These binders were tested against GRIP2_3, Q9C0E4 (assay: holdup assay). Conditions: plain residues with an end cap or a label only (N-terminal biotin on a linker: ado-ado).
Parameters: key: below the threshold = too weak to quantify, mostly under pKd 3.1 to 4

Chain of GRIP2_3, Q9C0E4 (Q9C0E4 238-339): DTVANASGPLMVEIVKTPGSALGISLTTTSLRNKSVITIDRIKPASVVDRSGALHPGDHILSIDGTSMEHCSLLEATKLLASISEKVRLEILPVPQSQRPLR

| pKd | Binder |
| --- | --- |
| below the threshold | B1 |
| below the threshold | B2 |

The binders below were run against GRIP2_7, Q9C0E4 (assay: holdup assay). Conditions: plain residues with an end cap or a label only (N-terminal biotin on a linker: ado-ado).
Parameters: key: below the threshold = too weak to quantify, mostly under pKd 3.1 to 4

Chain of GRIP2_7, Q9C0E4 (Q9C0E4 934-1023): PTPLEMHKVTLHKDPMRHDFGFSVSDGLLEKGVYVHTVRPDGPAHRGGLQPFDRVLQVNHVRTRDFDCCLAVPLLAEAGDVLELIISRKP

| pKd | Binder |
| --- | --- |
| below the threshold | B1 |
| below the threshold | B2 |

These binders were tested against T5, HTRA3, P83110 (assay: holdup assay). Conditions: plain residues with an end cap or a label only (N-terminal biotin on a linker: ado-ado).
T5 sequence (P83110 354-453, limits assumed, looked up): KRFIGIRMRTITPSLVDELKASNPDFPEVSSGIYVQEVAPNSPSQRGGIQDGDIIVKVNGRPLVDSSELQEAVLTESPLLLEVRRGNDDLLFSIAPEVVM
Parameters: key: below the threshold = too weak to quantify, mostly under pKd 3.1 to 4

| pKd | Binder |
| --- | --- |
| below the threshold | B1 |
| below the threshold | B2 |

Each binder was assayed against LIMK2, P53671 (assay: holdup assay). Conditions: plain residues with an end cap or a label only (N-terminal biotin on a linker: ado-ado).
Parameters: key: below the threshold = too weak to quantify, mostly under pKd 3.1 to 4

Chain of LIMK2, P53671 (P53671 143-248): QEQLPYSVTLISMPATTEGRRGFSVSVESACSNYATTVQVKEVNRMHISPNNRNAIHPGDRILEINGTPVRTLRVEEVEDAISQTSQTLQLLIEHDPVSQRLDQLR

| pKd | Binder |
| --- | --- |
| below the threshold | B1 |
| below the threshold | B2 |

The binders below were run against MAGI1_2, Q96QZ7 (assay: holdup assay). Conditions: plain residues with an end cap or a label only (N-terminal biotin on a linker: ado-ado).
Parameters: key: below the threshold = too weak to quantify, mostly under pKd 3.1 to 4

Chain of MAGI1_2, Q96QZ7 (Q96QZ7 456-580): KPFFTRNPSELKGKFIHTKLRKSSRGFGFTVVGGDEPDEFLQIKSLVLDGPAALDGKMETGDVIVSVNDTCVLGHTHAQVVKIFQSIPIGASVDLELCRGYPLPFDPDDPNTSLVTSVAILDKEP

| pKd | Binder |
| --- | --- |
| below the threshold | B1 |
| below the threshold | B2 |

The binders below were run against T6, NHERF3_3, Q5T2W1 (assay: holdup assay). Conditions: plain residues with an end cap or a label only (N-terminal biotin on a linker: ado-ado).
T6 sequence (Q5T2W1 238-333, limits assumed, looked up): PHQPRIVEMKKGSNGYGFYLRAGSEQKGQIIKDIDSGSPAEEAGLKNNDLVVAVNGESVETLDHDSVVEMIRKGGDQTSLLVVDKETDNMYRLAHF
Parameters: key: below the threshold = too weak to quantify, mostly under pKd 3.1 to 4

| pKd | Binder |
| --- | --- |
| below the threshold | B1 |
| below the threshold | B2 |

These binders were tested against NHERF4_2, Q86UT5 (assay: holdup assay). Conditions: plain residues with an end cap or a label only (N-terminal biotin on a linker: ado-ado).
Parameters: key: below the threshold = too weak to quantify, mostly under pKd 3.1 to 4

Chain of NHERF4_2, Q86UT5 (Q86UT5 220-308): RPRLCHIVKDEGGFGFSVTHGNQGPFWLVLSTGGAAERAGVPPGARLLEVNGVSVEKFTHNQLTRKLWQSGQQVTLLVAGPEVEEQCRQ

| pKd | Binder |
| --- | --- |
| below the threshold | B1 |
| below the threshold | B2 |

What follows are binders tested against T7, PARD3B_1, Q8TEW8 (assay: holdup assay). Conditions: plain residues with an end cap or a label only (N-terminal biotin on a linker: ado-ado).
T7 sequence (Q8TEW8 196-299, limits assumed, looked up): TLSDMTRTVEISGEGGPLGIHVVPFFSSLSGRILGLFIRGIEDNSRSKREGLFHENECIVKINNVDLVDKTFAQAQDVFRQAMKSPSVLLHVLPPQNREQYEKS
Parameters: key: below the threshold = too weak to quantify, mostly under pKd 3.1 to 4

| pKd | Binder |
| --- | --- |
| 4.13 | B1 |
| 3.96 | B2 |

What follows are binders tested against PARD3_3, Q8TEW0 (assay: holdup assay). Conditions: plain residues with an end cap or a label only (N-terminal biotin on a linker: ado-ado).
Parameters: key: below the threshold = too weak to quantify, mostly under pKd 3.1 to 4

Chain of PARD3_3, Q8TEW0 (Q8TEW0 582-685): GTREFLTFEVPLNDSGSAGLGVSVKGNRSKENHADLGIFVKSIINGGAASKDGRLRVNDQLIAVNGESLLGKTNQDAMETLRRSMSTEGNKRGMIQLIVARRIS

| pKd | Binder |
| --- | --- |
| below the threshold | B1 |
| below the threshold | B2 |

Each binder was assayed against T8, PDZD7_3, Q9H5P4 (assay: holdup assay). Conditions: plain residues with an end cap or a label only (N-terminal biotin on a linker: ado-ado).
T8 sequence (Q9H5P4 857-944, limits assumed, looked up): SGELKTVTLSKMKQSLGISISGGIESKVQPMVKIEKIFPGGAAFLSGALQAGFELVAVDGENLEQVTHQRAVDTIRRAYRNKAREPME
Parameters: key: below the threshold = too weak to quantify, mostly under pKd 3.1 to 4

| pKd | Binder |
| --- | --- |
| 4.01 | B1 |
| below the threshold | B2 |

The binders below were run against SCRIB_1, Q14160 (assay: holdup assay). Conditions: plain residues with an end cap or a label only (N-terminal biotin on a linker: ado-ado).
Parameters: key: below the threshold = too weak to quantify, mostly under pKd 3.1 to 4

Chain of SCRIB_1, Q14160 (Q14160 718-814): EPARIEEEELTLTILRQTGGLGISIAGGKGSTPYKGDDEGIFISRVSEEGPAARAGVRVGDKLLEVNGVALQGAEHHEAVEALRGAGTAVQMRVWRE

| pKd | Binder |
| --- | --- |
| below the threshold | B1 |
| 4.56 | B2 |

These binders were tested against SCRIB_3, Q14160 (assay: holdup assay). Conditions: plain residues with an end cap or a label only (N-terminal biotin on a linker: ado-ado).
Parameters: key: below the threshold = too weak to quantify, mostly under pKd 3.1 to 4

Chain of SCRIB_3, Q14160 (Q14160 999-1103): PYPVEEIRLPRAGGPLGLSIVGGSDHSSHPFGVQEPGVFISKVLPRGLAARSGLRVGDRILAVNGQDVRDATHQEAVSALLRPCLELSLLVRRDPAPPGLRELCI

| pKd | Binder |
| --- | --- |
| below the threshold | B1 |
| 5.14 | B2 |

The binders below were run against T9, SIPA1L2, Q9P2F8 (assay: holdup assay). Conditions: plain residues with an end cap or a label only (N-terminal biotin on a linker: ado-ado).
T9 sequence (Q9P2F8 945-1036, limits assumed, looked up): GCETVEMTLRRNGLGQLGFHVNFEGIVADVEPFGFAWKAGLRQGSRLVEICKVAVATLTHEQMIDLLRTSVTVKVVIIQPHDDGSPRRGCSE
Parameters: key: below the threshold = too weak to quantify, mostly under pKd 3.1 to 4

| pKd | Binder |
| --- | --- |
| below the threshold | B1 |
| below the threshold | B2 |

Each binder was assayed against T10, SNTA1, Q13424 (assay: holdup assay). Conditions: plain residues with an end cap or a label only (N-terminal biotin on a linker: ado-ado).
T10 sequence (Q13424 82-180, limits assumed, looked up): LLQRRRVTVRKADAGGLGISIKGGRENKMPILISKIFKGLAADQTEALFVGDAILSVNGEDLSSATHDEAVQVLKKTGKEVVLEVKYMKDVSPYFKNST
Parameters: key: below the threshold = too weak to quantify, mostly under pKd 3.1 to 4

| pKd | Binder |
| --- | --- |
| below the threshold | B1 |
| 3.57 | B2 |

These binders were tested against T11, SNTG1, Q9NSN8 (assay: holdup assay). Conditions: plain residues with an end cap or a label only (N-terminal biotin on a linker: ado-ado).
T11 sequence (Q9NSN8 52-150, limits assumed, looked up): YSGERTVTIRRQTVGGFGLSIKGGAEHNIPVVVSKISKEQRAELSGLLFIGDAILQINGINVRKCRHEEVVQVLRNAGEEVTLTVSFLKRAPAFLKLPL
Parameters: key: below the threshold = too weak to quantify, mostly under pKd 3.1 to 4

| pKd | Binder |
| --- | --- |
| below the threshold | B1 |
| 3.56 | B2 |

The binders below were run against TJP1_2, Q07157 (assay: holdup assay). Conditions: plain residues with an end cap or a label only (N-terminal biotin on a linker: ado-ado).
Parameters: key: below the threshold = too weak to quantify, mostly under pKd 3.1 to 4

Chain of TJP1_2, Q07157 (Q07157 181-274): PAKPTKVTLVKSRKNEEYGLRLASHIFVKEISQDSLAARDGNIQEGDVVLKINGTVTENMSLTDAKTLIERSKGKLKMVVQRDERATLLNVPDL

| pKd | Binder |
| --- | --- |
| below the threshold | B1 |
| below the threshold | B2 |

What follows are binders tested against TJP2_1, Q9UDY2 (assay: holdup assay). Conditions: plain residues with an end cap or a label only (N-terminal biotin on a linker: ado-ado).
Parameters: key: below the threshold = too weak to quantify, mostly under pKd 3.1 to 4

Chain of TJP2_1, Q9UDY2 (Q9UDY2 24-128): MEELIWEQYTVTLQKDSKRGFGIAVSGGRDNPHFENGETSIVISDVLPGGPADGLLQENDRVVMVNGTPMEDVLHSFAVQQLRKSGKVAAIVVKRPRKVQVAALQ

| pKd | Binder |
| --- | --- |
| below the threshold | B1 |
| below the threshold | B2 |

Each binder was assayed against T12, TJP3_3, O95049 (assay: holdup assay). Conditions: plain residues with an end cap or a label only (N-terminal biotin on a linker: ado-ado).
T12 sequence (O95049 375-456, limits assumed, looked up): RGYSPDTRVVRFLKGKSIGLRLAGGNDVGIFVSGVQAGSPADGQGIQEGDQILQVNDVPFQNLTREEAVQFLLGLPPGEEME
Parameters: key: below the threshold = too weak to quantify, mostly under pKd 3.1 to 4

| pKd | Binder |
| --- | --- |
| below the threshold | B1 |
| below the threshold | B2 |

Source: article PMC9482650, “Quantitative fragmentomics allow affinity mapping of interactomes” (Nature Communications, 2022)
